B1: Peroxisomal biogenesis factor 3 (Saccharomyces cerevisiae), P28795 (parent)
chain: MAPNQRSRSLLQRHRGKVLISLTGIAALFTTGSVVVFFVKRWLYKQQLRITEQHFIKEQIKRRFEQTQEDSLYTIYELLPVWRMVLNENDLNLDSIVTQLKDQKNQLTRAKSSESRESSPLKSKAELWNELELKSLIKLVTVTYTVSSLILLTRLQLNILTRNEYLDSAIKLTMQQENCNKLQNRFYNWVTSWWSDPEDKADDAMVMAAKKSKKEGQEVYINEQAFLSLSWWILNKGWLSYNEIITNQIEIEFDGIHPRDTLTLEEFSSRLTNIFRNTNSQIFQQNNNNLTSILLPKDSSGQEFLLSQTLDADALTSFHSNTLVFNQLVNELTQCIESTATSIVLESLINESFHFIMNKVGIKTIAKKKPGQEDQQQYQMAVFAMSMKDCCQEMLQTTAGSSHSGSVNEYLATLDSVQPLDDLSASVYSNFGVSSSFSFKP
partner: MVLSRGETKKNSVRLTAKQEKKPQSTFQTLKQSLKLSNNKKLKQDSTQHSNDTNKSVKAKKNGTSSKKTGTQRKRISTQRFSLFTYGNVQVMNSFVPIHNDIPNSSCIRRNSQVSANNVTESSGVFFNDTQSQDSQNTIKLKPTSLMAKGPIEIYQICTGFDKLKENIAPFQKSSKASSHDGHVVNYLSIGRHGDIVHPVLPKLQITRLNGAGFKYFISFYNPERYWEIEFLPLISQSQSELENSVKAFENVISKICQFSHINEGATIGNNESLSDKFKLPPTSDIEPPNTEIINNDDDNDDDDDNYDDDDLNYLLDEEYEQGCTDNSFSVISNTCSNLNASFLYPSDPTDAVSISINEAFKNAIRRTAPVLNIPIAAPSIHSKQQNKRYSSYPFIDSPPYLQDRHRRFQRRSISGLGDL

Variants of: B1
Conditions: with inp1_yeast INP1, Q03694

Row | Variant | effect of a mutation on the interaction
1 | N188I | decreasing interaction

Variants of: B1
Conditions: with inp1_yeast INP1, Q03694
Remark: another data set of the same source

Row | Variant | effect of a mutation on the interaction
2 | V81E | disrupting interaction

Source: IntAct's records for PubMed 23900285
